Experiment: yeast display, Sf9 membrane polyspecificity reagent, FACS + sequencing; frameworks hold sequencing errors
Procedure, shortened: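 A nanobody's polyreactivity label depends on the gate it was sorted from. Yeast display cells were stained with 10% biotinylated, detergent-solubilized Sf9 membrane reagent for 1 hour at 4 °C, enriched on streptavidin microbeads and sorted by FACS. The low and high (top ~1%) gates were set on anti-HA fluorescence for expression and streptavidin fluorescence for reagent binding.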

| Sequence | polyreactivity (PSR sort gate) |
| --- | --- |
| QVQLVESGGGLVQAGGSLRLSCAASGFTFYRNAMGWYRQAPGKERELVAAISWSGDSTYYADSVKGRFTISRDNAKNTVYLQMNSLKPEDTAVYYCDKERYFYYPWVTTYTSNYWGQGTQVTVSS | low polyreactivity |
| QVQLVESGGGLVQAGGSLRLSCAASGRIFVKYTMGWYRQAPGKERELVAAIDFDTDSTYYADSVKGRFTISRDNAMNTVYLQMNSLKPEDTAVYYCAADQYYYWYTHQSIGYDYWGQGTQVTVSS | low polyreactivity |
| QVQLVESGGGLVQAGGSLRLSCAASGYILIYNAMGWYRQAPGTERELVAAINYRGDRTYYADSVKGRFTISRDNAKNTVYLQMNSLKPEDTAVYYCAKDYPYYGRYYRYPYDSWGQGTQVTVSS | high polyreactivity |
| QVQLVESGGGLVQAGGSLRLSCAASGITFYLYTMGWYRQAPGKERELVAAISWRGGGTYYADSVKGRFTISRDNAKNTVYLQMNSLKPEDTAVYYCATVRTYARNDYWGQGTQVTVSS | high polyreactivity |
| QVQLVESGGGLVQAGGSLRLSCAASGSTSVTNAMGWYRQAPGKEREFFATINYSGTSTYYADSVKGRFTISRDNAKNTVYLQMNSLNPEDTAVYYCYAHDFGFYRFSLPGYDYWGQGTQVTVSS | low polyreactivity |
| QVQLVESGGGLVQAGGSLRLSCAASGRTFAWYTMGWYRQAPGKERELVAAISGSGGSTYYADSVKGRFTISRDNAKNTVYLQRKSLKPEDTAVYYCARRVHSYYGHTRYYYWGQGTQVTVSS | high polyreactivity |
| QVQLVESGGGLVQAGGSLRLSCAASGRTFSSNAMGWYRPAPGKEREMVAAITRRSGSTYYADSVKGRFTISRDNAKNTVYLQMNSLKPEDTAVYYCNADIDSYREMDYWGQGTQVTVSS | low polyreactivity |
| QVQLVESGGGLVQAGGRLRLSCAASGSTFRRNAMGWYRQAPGKERELVATISPGARTNYADSVKGRFTISRDNAKNTVYLQMNSLKPEDTAVYYCNAEFTLLYPLYDYWGQGTQVTLSS | low polyreactivity |
| QVPLVESGGGLVQAGGSLRLSCAASGRTFGIYAMGWYRQEPGKERELVATISWRGGSTNYADSVKGRFTISRDNAKNTVYLQMNSLKPEDTAVYYCAADPCGFGYPYLTRGTDGYDYWGQGTQVTVSS | low polyreactivity |
| QVQLVESGGGLVQAGGSLRLSCAASGSTFYAYAMGWYRQAPGKERELVAAINSVGSTYYADSVKGRFTISRDNAKNTVYLQMNSLKPEDTAVYYCARGVDYPTSQPPYFRHDYWGQGTQVTVSS | low polyreactivity |
| QVQLVESGGGLVQAGGSLRLSCAASGRIFGRYAMGWYRQAPGKERELVAAISSGGNTYYADSVKGRFTISRDNAKNTVYLQMNSLKPEDTAVYYCKALYYRQPGYDYWGQGTQVTVSS | high polyreactivity |
| QVQLVESGGGLVQAGGSLRLSCAASGSTFVYYAMGGYRQAPGKERELDAAITSSGVRTYYADSVKGRFTISRDNAKNTVYLQMNSLKPEVTAVYYCAKRSTRLYSFTYQGYGYWGQGTQVTVSS | high polyreactivity |
| QVQLVESGGGLVKAGGSLRLSCAASGSTFYNYAMGWYRQAPGKERELVAAISTRGGSTYYADSVKGRFTISRDNAKNTVYLQMNSLKPEDTAVYYCAADGRGGHDDYWGQGTQVTVSS | high polyreactivity |
| QVQHVESGGGLVQAGGSLRLSCAASGFIFGVYDMGWYRQAPGKERELVAAIDCVGSTYYADSVKGRFTISRDNAKNTVYLQMNSLKPEDTAGYYCNAARSRLYYDKYYYWGQGTQVTVSS | low polyreactivity |
| QVQLVESGGGLVQAAGSLRLSCAASGSIFRPYAMGWYRQAPGKERELVATITSRGGSTYYADSVKGRFTISRDNAKNTVYLQMNSMKPEDTAVYYCAARYISSYGRTQDYSRYDYWGQGTQVNVSS | high polyreactivity |
| QVQLVESGGGLVQAVGSLRLSCADSGTFPYYAMGRYRQAPWKERELVAAITRSGTRTYYADSVKGRFTISRDNAKNTGYLQMKSLKPEDTAVYYCAARQTGFSSQFRGYYSWGQGTQVTVSS | high polyreactivity |
| QVQLVESGGGLVQAGGSLRLSCAASGSIFRIYVMGWYRQAPGKERELVAAITNDGSTSYADSVKGRFTISRDNAKNTVYLQMNSLKPEDTAVYYCNAYRRRATYNGDYWGQGTQVTVSS | high polyreactivity |
| QVQLVESGGGLVQAGGSLRLTSAASGSTIDYYAMGWYRQAPGKERELVARISKRGGSTYYADSVKGRFTISRDNAKYTVYLQMNSLKPEDTAVYFCAKRVRISYTNYHFDYWGQCTQVTVSS | high polyreactivity |
| QVQLVESGGGLVQAGVSLRLSCAASGRTFYRYVMGWYRQAPGKERELVAAITPGGSTYADSVKGRFTISRDNAKNTVYLQMNSLKPEDTAVYFCNKRKASSSGYNYWGQGTQVTVSS | low polyreactivity |
| QVQLVESGGGIVQAGGSLRLSCAASGRTSVINAMGWYRQAPGKERELVASISRGGSTNYADSVKGRFTISRDNAKNTVYLQMNSLKPEDTAVYYCNADEQNDSFIWSYTIIYDYWGQGTQVTVSS | low polyreactivity |
| QVQLVESGGGLVQAGGSLRLSCAASGRTFRNYAMGWYRQAPGKERELVAAINSGGSTNYADSVKGRFTISRDNAKNTVYLQMNSLKPEDTAVYYCAKRRTYPGKGRFNYWGQGTQVTVSS | low polyreactivity |
| QVQLVESGGGLVQAGGSLRLSCAASGFTLRRYAMGWYRQAPGKERELVATITSGGTTDYADSVKGRFTISRDNAKNTVYLQMNSLKPEDTAVYYCAAYRRGAYYYWGQGTQVTVSS | high polyreactivity |

| Sequence | polyreactivity (PSR sort gate) |
| --- | --- |
| QVQLVESGGGLVQAGGSLRLSCAASGYTFRVYTMGWYRQAPGKERELVAAISRRGSRTYYADSVKGRFTISRDNAKNSVYLQMNSLKPEDTAVYYCAAGIPYPDDYWGQGTQVTVSS | high polyreactivity |
| QVQLVESGGGLLQAGGSLRLSCAASGFTIVCYAMGWYRQAPGKERELVAAISSGGSTYYADSVKGRFTISRDNAKNTVFLLMNSLKPEDTAVYYCAADREYYDEYAGYEYWGQGTQVTVSS | low polyreactivity |
| QVQLVESGGGLVQAGGSLRLSCAASGSIAGNAMGWYRQARGKEREMVAAITFRGSGTYYADSVKGRFTISRDNAKKTVYLQMNSLKPEDTAVYYCNAYRRGLSGYGYWGQGTQVTVSS | high polyreactivity |
| QVQLVESGGGLVQAGGSLRLSCAASGSIFTWNGMGWYRQAPGKERELVAAISGSGGTTYADSVKGRFTISRDNAKNTVYLQMNSLKPEDTAVYYCARRVWVRDYPFGYARYGYWGQGTQVTVSS | low polyreactivity |
| QVQLVESGGGLVQAGGSLRLSCSASGRIFWDYAMGRYRQAPGKERELVASSSTDGSTYYADSVKGRFTISRDNANNTFYLQMNSLKPEDTAVYYCAARGYRGRMGYWGQGTQVTVSS | low polyreactivity |
| HVQLVESGGGLVQAGGSLRLSCAASGITLTIYVMGGYRQAPGKERELVAAISTSGGSTYYADSVKGRFTISRDNAKNTDYLQMNSLKPEDTAVYYCNATPLRRYYGRYLMDYWGQGTQVTVSS | high polyreactivity |
| QVQLVESGGGLVQAGGSLRLSCAASGSTFSPNAMGWYRQAPGKERELVAAISGSGGSTYYADSVKGRFTISRDNAKNTVYLQMNSLKPEDTAVYYCAADSYYDGDYWGQGTQVTVSS | low polyreactivity |
| QVQLVESGGGLVQAGGSLRLSCAASGRTFYHYAMGWYRQAPGKERELFAAISWTGGSTSSTYYADSVKGRFTISRDNAKNTVYLQMNSLKPEDTAVYYCAADFWWGHTWQDDYWGQGTQVTVSS | low polyreactivity |
| QVQLVESGGGLVQAGGSLRLSCAASGSTFYKYAMGWYRQAPGKERELVASISRSGGSTSYADSVKGRFTISRDNAKNTVYLQMNSLKPEDTAVYYCAATWRQHPGSMGYWGQGTQVTVSS | high polyreactivity |
| QVQLVESGGGLVQAGGSLRLSCAASGRIFGTYAMGWYRQAPGKERELVAAITQSGGRTYYADSVKGRFTISRDNAKNTVYLQMNSLKPEDTAVYYCAADSGKRRYGYYYWGQGTQVTVSS | high polyreactivity |
| QVQLVESGGGLVQAGGSLRLSCAASGIILGSNAKGWYRQAPGKERELVAGITSGGGTYYADSVKGRFTISRDNAKKTVYLQMNSLKPEDTAVYYCAKLYFHYYRYGYWGQGTQVTVSS | low polyreactivity |
| QVQLVESGGGLVQAGGSLRLSCAASGRTFYIYAMGWYRQAPGKERELVAAISWGSGSTYYADSVKGRFTISRDNAKNTVYLQMNSLKPEDTAVYYCAAEYAYPSEWTYDYWGQGTQVTVSS | low polyreactivity |
| QVQLVVSGGGLVQAGGILRLICAASGIIFSFYTMGGYRQAPGKERELVAAISTGGGSTYYADSVKGRFTISRDNAKNTVYLQMNSLIPEDTAVSYCAASQSWYWGGAHDNGEFGYCGQGTQVTVSS | low polyreactivity |
| QVQLVESGGGLVQAGGSLRLSSAASGFIFTWYAMGWYIQAPGKERELVAAISSSGGRTYYADSVKGRFTISRDNAKNTVYLQMNSLKPEDSAVYYCTAVKFIRQHSEYDYWGQGTLVTVSS | high polyreactivity |
| QVQLVESGGGLVQAGGSLRLSCAASGSIFLYNAMGWYRQAPGKERELVAAITWSTDRTYYADSVKGRFTISRDNAKNTVYVQMNSLKPEDTAVYYCNRLVNHIYVPRRDYWGQGTQVTVSS | low polyreactivity |
| QVQLVESGGGLVQAGGSLRLSCAASGFTFRWYAMRWYRQAPGKERELVADITRSGDTNYAYSVKGRFTISRDNAKNTVYLQMKSQKPEDTAVYSCAKDWAYRRHWVGFYYWGQGTQVTVSA | low polyreactivity |
| QVQLVESGGGLVQAGGSLRLSCAASGFTFGRYAMGWYRQAPGKERELVAAISFSGGRTYYADSVKGRFTISRDNAKNTVYLQMNSLKPEDTAVYYCNTAYWYSLYDYWGQGTQVTVSS | high polyreactivity |
| QVQLVESGGGLVQAGGSLRLSCAPSGTIFYSYAMGWYRQAPGKERELVAAISQRGGSTYYADSVKGRFTISRDNAKNTVYLQMNSLKPEDTAVYYCNAVYRRAQFLYGYDYWGQGTQVTVSS | high polyreactivity |
| QVQLVESGGGLVQAGGSLRLSCAASGRIFPVNTMGWYRQAQGKVRELVAAITSGGGTYYADSVKGRFTISRDNAKNTVYLQMNSLKPEDTAVYYCNAPEGRKPYDSWGQGTQVTVSS | low polyreactivity |
| QVQLVESGGGLVQAGGSLRLICAASGNTFYGYAMGWSRPAPGKERELVASITLSGDSTYYADSVKGRFTISRDNAKNTVYLQMNSLKPEDTAVYYCAGVYTYPLGYYHYTYDYWGQGTQVTVSS | low polyreactivity |
| QVQLVESGGGLVQAGGSLRLSCAASGSIFYNTMGWYRQAPGKERELVAAISGTRASTYYADSVKGRFTISRDNAKNTVYLQMNSLKPEDTAVYYCAAVPAYPRDYDYWGQGTQVTVSS | low polyreactivity |
